The series deals with carcinoembryonic antigen (CEA) (UniProt P06731 35-685). In words: electrochemical aptasensor (DPV, Fe(CN)6 3-/4- probe); aptamer immobilized on BSA-blocked NH2-VMSF/p-SPCE; linear range 100 fg/mL-100 ng/mL, LOD 24 fg/mL (not an affinity); aptamer immobilized in 0.01 M PBS pH 7.4 (4 C, 90 min), BSA block 0.1 wt%; CEA incubation 60 min; CEA binding buffer and temperature not in the material. The note with it: protein: commercial.
carcinoembryonic antigen (CEA), sequence (P06731 35-685): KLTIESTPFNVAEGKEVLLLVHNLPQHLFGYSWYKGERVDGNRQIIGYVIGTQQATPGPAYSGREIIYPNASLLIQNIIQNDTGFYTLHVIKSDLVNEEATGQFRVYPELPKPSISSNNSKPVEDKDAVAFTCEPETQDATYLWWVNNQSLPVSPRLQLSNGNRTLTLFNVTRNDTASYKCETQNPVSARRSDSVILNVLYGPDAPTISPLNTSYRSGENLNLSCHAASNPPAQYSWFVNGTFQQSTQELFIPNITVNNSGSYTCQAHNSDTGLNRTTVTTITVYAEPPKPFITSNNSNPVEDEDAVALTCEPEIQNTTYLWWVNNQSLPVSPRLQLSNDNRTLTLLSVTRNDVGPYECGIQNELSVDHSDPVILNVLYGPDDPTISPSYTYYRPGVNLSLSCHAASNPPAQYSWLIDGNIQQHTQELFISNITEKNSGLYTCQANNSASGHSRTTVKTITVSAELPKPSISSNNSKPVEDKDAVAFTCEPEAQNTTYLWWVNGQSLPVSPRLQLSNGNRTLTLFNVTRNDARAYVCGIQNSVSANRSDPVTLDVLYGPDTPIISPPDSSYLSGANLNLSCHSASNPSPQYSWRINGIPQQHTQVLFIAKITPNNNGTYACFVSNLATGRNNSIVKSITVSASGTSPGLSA

Take ATACAGCTTCAATT (ssDNA, 3'-NH2) [amino-modified CEA aptamer (Apt)]: the binding result is “binds”.

For the origin of these results see publication PMC11586170, “Amino-functionalized vertically ordered mesoporous silica film on electrochemically polarized screen-printed carbon electrodes for the construction of gated electrochemical aptasensors and sensitive d”.
